{"source": "patent US20090081760A1", "about": "“DMO METHODS AND COMPOSITIONS” (priority 2007, published 2009)", "molecules": {"B1": {"name": "dicamba monooxygenase (DMO) (enzyme)", "chain": "MATFVRNAWYVAALPEELSEKPLGRTILDTPLALYRQPDGVVAALLDICPHRFAPLSDGILVNGHLQCPYHGLEFDGGGQCVHNPHGNGARPASLNVRSFPVVERDALIWIWPGDPALADPGAIPDFGCRVDPAYRTVGGYGHVDCNYKLLVDNLMDLGHAQYVHRANAQTDAFDRLEREVIVGDGEIQALMKIPGGTPSVLMAKFLRGANTPVDAWNDIRWNKVSAMLNFIAVAPEGTPKEQSIHSRGTHILTPETEASCHYFFGSSRNFGIDDPEMDGVLRSWQAQALVKEDKVVVEAIERRRAYVEANGIRPAMLSCDEAAVRVSREIEKLEQLEAARLEHHHHHH", "notes": "also called DMOw; DdmC"}, "B2": {"name": "R248L: DMO substitution variant (protein)", "chain": "B1 chain with W112C, R248L"}, "B3": {"name": "R248K: DMO substitution variant (protein)", "chain": "B1 chain with W112C, R248K"}, "B4": {"name": "L282I: DMO substitution variant (protein)", "chain": "B1 chain with W112C, L282I"}, "B5": {"name": "R248M: DMO substitution variant (protein)", "chain": "B1 chain with W112C, R248M"}, "B6": {"name": "Control: control (wild type) DMO of the Table 29 LC/MS screen (protein, UniProt Q5S3I3 2-339, looked up)", "Dicamba O-demethylase, …": "TFVRNAWYVAALPEELSEKPLGRTILDTPLALYRQPDGVVAALLDICPHRFAPLSDGILVNGHLQCPYHGLEFDGGGQCVHNPHGNGARPASLNVRSFPVVERDALIWIWPGDPALADPGAIPDFGCRVDPAYRTVGGYGHVDCNYKLLVDNLMDLGHAQYVHRANAQTDAFDRLEREVIVGDGEIQALMKIPGGTPSVLMAKFLRGANTPVDAWNDIRWNKVSAMLNFIAVAPEGTPKEQSIHSRGTHILTPETEASCHYFFGSSRNFGIDDPEMDGVLRSWQAQALVKEDKVVVEAIERRRAYVEANGIRPAMLSCDEAAVRVSREIEKLEQLEAA"}}, "key": {"[1]": {"target": "the molecule itself", "test": "X-ray crystal structure (homotrimer in the asymmetric unit)"}, "Dicamba": {"tested_on": "Dicamba", "test": "LC-MS/MS screen for oxygenase (DMO) activity: E. coli liquid culture expressing ddmC or a variant, grown with dicamba, DCSA detected in supernatant", "format": "cell-based", "procedure": "An LC-MS/MS screen for oxygenase activity was used to detect DCSA. The method comprises a two stage process made up of a liquid cell culture assay coupled to an LC-MS/MS detection screen. In the liquid cell culture stage, the gene of interest, i.e. ddmC or a variant thereof, was cloned under the control of a promoter (e.g. T7 promoter, pET vector) and transformed into an E. coli host cell. […] Cells were spun down, and the supernatant was filtered and diluted tenfold with the inclusion of 8 μM salicylic acid as an internal standard. Samples of the supernatant, and/or optionally the cell pellet (or lysate thereof), from this first stage were analyzed for DCSA levels (i.e. DMO activity level) by LC-MS/MS.\nWhile many oxygenases such as DMO are multi component systems requiring other helper enzymes for activity, it was observed that components in E. coli may substitute for these helper enzymes or functions. Thus, transformation of E. coli with a single “oxygenase” gene from a multi component system nevertheless results in measurable activity for the gene alone, even without other components being co-transformed into the same E. coli cell. Activity is observed because, in E. coli cells, surrogates with homology to the original helper enzymes (e.g. ferredoxin and reductase) may be utilized. Additionally, E. coli can take up substrate (e.g. dicamba) and excrete the product (e.g. DCSA) into the media supernatant, allowing for the speed and simplicity of this cell based screen. No lysis of cells is required. Alternatively, an HPLC-based assay for DMO activity may be utilized. Promising variants were used as templates for additional rounds DOT and or other mutagenesis methods in an iterative manner. […]\nSets of saturation mutagenesis primers (using NNS degenerate triplets) for 31 residues at the active site and involved in the electron transfer chain as indicated in Table 28 were designed and used to introduce mutations into the ddmC gene by means of terminated PCR on the template (ddmC gene with His tag and two changes, T2S+I123L (SEQ ID NO:23) in pMV4 vector (Modular Genetics, Cambridge, Mass.). Resulting PCR products were treated with DpnI to remove the parental template molecules, self-annealed and transformed into chemically competent E. coli Top10 F′ (Invitrogen, Carlsbad, Calif.). Standard DNA cloning methods were utilized (e.g. Sambrook et al., 1989). The individual colonies were grown in liquid culture. DNA was isolated by a standard miniprep procedure and used to transform the chemically competent E. coli (e.g. BL21(DE3)). […] Cells were spun down, and the supernatant was filtered and diluted tenfold with 8 μM salicylic acid as an internal standard. The DCSA levels (i.e. DMO activity level) were determined by LC-MS analysis as described above (e.g. Example 8).\nAdditional single substitution variants of DMO at residues corresponding to interaction (e.g. subunit interface) domains and the ferredoxin binding site were also prepared and assayed for their effect on enzymatic activity (See also Examples 8A, 8B) by the LC/MS screen. In most cases shown in Table 29, one conservative and one neutral substitution was tried at a given residue.\nTable 30 lists DMO activity data (by LC/MS screen) for 58 variants relative to ddmC_M—6his (the wild type ddmC sequence with an N-terminal His tag (SEQ ID NO: 154), while Table 31 lists DMO activity data (by LC/MS screen) for 1685 variants relative to ddmC_RLE6his (the wild type ddmC sequence with T2S and I123L mutations (SEQ ID NO:23), and a C-terminal 6×His tag). The numbering of residues is based on the numbering found in SEQ ID NO:2 or SEQ ID NO:3."}}, "note": "Where a chain is given by its changes, count along the chain named. In names and notes the source's numbering stands.", "data": [{"molecule": "B1", "values": [{"measurement": "binding result", "setting": "[1]", "value": "binds"}]}, {"molecule": "B2", "values": [{"measurement": "Changed to: L % of control for set", "setting": "Dicamba; residue changed to L, DCSA relative to control average of the data set", "value": 153.00, "unit": "%"}, {"measurement": "Changed to: L DCSA values (ppm)", "setting": "Dicamba; residue changed to L, mean +/− SD (n)", "value": "40.68 +/− 10.77 (4) ppm"}]}, {"molecule": "B3", "values": [{"measurement": "Changed to: K % of control for set", "setting": "Dicamba; residue changed to K, DCSA relative to control average of the data set", "value": 155.15, "unit": "%"}, {"measurement": "Changed to: K DCSA values (ppm)", "setting": "Dicamba; residue changed to K, mean +/− SD (n)", "value": "41.25 +/− 4.05 (4) ppm"}]}, {"molecule": "B4", "values": [{"measurement": "Changed to: I % of control for set", "setting": "Dicamba; residue changed to I, DCSA relative to control average of the data set", "value": 116.03, "unit": "%"}, {"measurement": "Changed to: I DCSA values (ppm)", "setting": "Dicamba; residue changed to I, mean +/− SD (n)", "value": "44.35 +/− 1.22 (4) ppm"}]}, {"molecule": "B5", "values": [{"measurement": "Changed to: M % of control for set", "setting": "Dicamba; residue changed to M, DCSA relative to control average of the data set", "value": 128.37, "unit": "%"}, {"measurement": "Changed to: M DCSA values (ppm)", "setting": "Dicamba; residue changed to M, mean +/− SD (n)", "value": "34.13 +/− 3.09 (4) ppm"}]}, {"molecule": "B6", "values": [{"measurement": "Control DCSA Produced (ppm) Set 1 average (±SD)", "setting": "Dicamba; Set 1 average", "value": "38.22 ± 7.81", "unit": "ppm"}, {"measurement": "Control DCSA Produced (ppm) Set 2 average (±SD)", "setting": "Dicamba; Set 2 average", "value": "26.59 ± 4.96", "unit": "ppm"}, {"measurement": "Control DCSA Produced (ppm) Set 3 average (±SD)", "setting": "Dicamba; Set 3 average", "value": "38.00 ± 6.87", "unit": "ppm"}]}]}
